Data set [1] can be described thus: cycloheximide chase, Western blot, HEK293T. The settings on record: glycan lost; control: WT CD95.
Data set [2] can be described thus: anti-APO-1 surface staining (flow cytometry), transient HeLa. The following applies: glycan lost; control: WT CD95.
Data set [3] is described as follows: high molecular weight CD95 complexes after anti-APO-1, Western blot. The following applies: glycan lost; control: WT CD95.
Data set [4] is described as follows: confocal microscopy, stable HeLa lines. The settings on record: glycan lost; control: WT CD95.
Data set [5] can be described thus: anti-APO-1 surface staining, flow cytometry. The following applies: glycan changed form; control: untreated SKW6.4 cells.

B1: CD95 (Fas/APO-1): N118Q (protein)
parent chain: MLGIWTLLPLVLTSVARLSSKSVNAQVTDINSKGLELRKTVTTVETQNLEGLHHDGQFCHKPCPPGERKARDCTVNGDEPDCVPCQEGKEYTDKAHFSSKCRRCRLCDEGHGLEVEINCTRTQNTKCRCKPNFFCNSTVCEHCDPCTKCEHGIIKECTLTSNTKCKEEGSRSNLGWLCLLLLPIPLIVWVKRKEVQKTCRKHRKENQGSHESPTLNPETVAINLSDVDLSKYITTIAGVMTLSQVKGFVRKNGVNEAKIDEIKNDNVQDTAEQKVQLLRNWHQLHGKKEAYDTLIKDLKKANLCTLAEKIQTIILKDITSDSENSNFRNEIQSLV
Take B1: in data set [1], the degradation_or_half_life entry was “no change”. The localisation_or_trafficking result in data set [2] and in data set [4] was “no change” each time. Further, in data set [3], the oligomerisation result is “no change”.

B2: CD95 (Fas/APO-1): DMM (protein)
parent chain: MLGIWTLLPLVLTSVARLSSKSVNAQVTDINSKGLELRKTVTTVETQNLEGLHHDGQFCHKPCPPGERKARDCTVNGDEPDCVPCQEGKEYTDKAHFSSKCRRCRLCDEGHGLEVEINCTRTQNTKCRCKPNFFCNSTVCEHCDPCTKCEHGIIKECTLTSNTKCKEEGSRSNLGWLCLLLLPIPLIVWVKRKEVQKTCRKHRKENQGSHESPTLNPETVAINLSDVDLSKYITTIAGVMTLSQVKGFVRKNGVNEAKIDEIKNDNVQDTAEQKVQLLRNWHQLHGKKEAYDTLIKDLKKANLCTLAEKIQTIILKDITSDSENSNFRNEIQSLV
As for B2, in data set [5], the localisation_or_trafficking result is reported as “no change”.

B3: CD95 (Fas/APO-1): N136Q (protein)
parent chain: MLGIWTLLPLVLTSVARLSSKSVNAQVTDINSKGLELRKTVTTVETQNLEGLHHDGQFCHKPCPPGERKARDCTVNGDEPDCVPCQEGKEYTDKAHFSSKCRRCRLCDEGHGLEVEINCTRTQNTKCRCKPNFFCNSTVCEHCDPCTKCEHGIIKECTLTSNTKCKEEGSRSNLGWLCLLLLPIPLIVWVKRKEVQKTCRKHRKENQGSHESPTLNPETVAINLSDVDLSKYITTIAGVMTLSQVKGFVRKNGVNEAKIDEIKNDNVQDTAEQKVQLLRNWHQLHGKKEAYDTLIKDLKKANLCTLAEKIQTIILKDITSDSENSNFRNEIQSLV
Regarding B3, the degradation_or_half_life result in data set [1] is “no change”. Also, the localisation_or_trafficking result in data set [2] and in data set [4] was “no change” throughout. Also, the oligomerisation result in data set [3] is “no change”.

B4: CD95 (Fas/APO-1): VCN (protein)
parent chain: MLGIWTLLPLVLTSVARLSSKSVNAQVTDINSKGLELRKTVTTVETQNLEGLHHDGQFCHKPCPPGERKARDCTVNGDEPDCVPCQEGKEYTDKAHFSSKCRRCRLCDEGHGLEVEINCTRTQNTKCRCKPNFFCNSTVCEHCDPCTKCEHGIIKECTLTSNTKCKEEGSRSNLGWLCLLLLPIPLIVWVKRKEVQKTCRKHRKENQGSHESPTLNPETVAINLSDVDLSKYITTIAGVMTLSQVKGFVRKNGVNEAKIDEIKNDNVQDTAEQKVQLLRNWHQLHGKKEAYDTLIKDLKKANLCTLAEKIQTIILKDITSDSENSNFRNEIQSLV
Consider B4, for which the localisation_or_trafficking result in data set [5] is reported as “no change”.

B5: CD95 (Fas/APO-1): N118Q/N136Q (protein)
parent chain: MLGIWTLLPLVLTSVARLSSKSVNAQVTDINSKGLELRKTVTTVETQNLEGLHHDGQFCHKPCPPGERKARDCTVNGDEPDCVPCQEGKEYTDKAHFSSKCRRCRLCDEGHGLEVEINCTRTQNTKCRCKPNFFCNSTVCEHCDPCTKCEHGIIKECTLTSNTKCKEEGSRSNLGWLCLLLLPIPLIVWVKRKEVQKTCRKHRKENQGSHESPTLNPETVAINLSDVDLSKYITTIAGVMTLSQVKGFVRKNGVNEAKIDEIKNDNVQDTAEQKVQLLRNWHQLHGKKEAYDTLIKDLKKANLCTLAEKIQTIILKDITSDSENSNFRNEIQSLV
B5: in data set [1], the degradation_or_half_life result was “no change”. The oligomerisation result in data set [3] is on record as “no change”.
